According to the nanobody polyreactivity screen of Harvey et al. (2022):

Assay: yeast display, Sf9 membrane polyspecificity reagent, FACS + sequencing; frameworks hold sequencing errors
How it was run: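 Galactose induction of a Saccharomyces cerevisiae BJ5465 synthetic nanobody display library ran 36–48 hours. The cells were then stained for 1 hour at 4 °C with 10% biotinylated, detergent-solubilized Sf9 membrane reagent, pulled down on streptavidin microbeads and FACS-sorted into low and high (top ~1%) gates on expression and reagent-binding fluorescence. Labels for polyreactivity follow the gate of origin.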

Sequence	polyreactivity (PSR sort gate)
QVQLVESGGGLFHAGGSLRLSCAASGRTFGIYAMGGSRQAPGKERELVAAITWSGDSTYYADSVKGRFTISRDNAKNTVYLQMNRLKPEDTAVYYCAADYVGVTSVRYDYWGQGTQVTVSS	low polyreactivity
QVQLVESGGGLFHAGGSLRLSCAASGSTFAYYAMGWYIQAPGKERELVAGISGSGGSTYYADSVKGRFTISRDNAKNTVYLQMKSLKPEDNAVYYCAVVQRSKRTYPWYDYWGQGTQVTVCS	low polyreactivity
QVQLVESGGGLFKAGGSLRLSCAASGSTLVTYAKGWYRQAPGKERELVAAISWRGGSTYYADSVKGRYTISRDNAKNTVYLQMNSLKPEDTEVYYCNKMRAYKESETYYFWGQGTQVTVSS	low polyreactivity
QVQLVESGGGLFLAGGSLRLSCAAAGSTFVTNDMGWYRQAPGKERELVAAISVGGRTSYADSVKGRFTISRDNAKNTVYLQMNSLKPEDTAVYYCAAQYRYTYWGQGTQVTVSS	low polyreactivity
QVQLVESGGGLFLAGGSLRLSCAASGSTFWYNMGWYRQAPGKDRELVAAISNSSGRTYYADSVKGRCTISRDNPKNTDYLQMKSLKPEDTAVYYSAADPKLGSRTGFYYWGQGTQVTVSS	high polyreactivity
QVQLVESGGGLFQAGGILILSFAASGNTLNYYTMGWYRQAPGKERELVAAISSSGGSTYYAESVKGSFTISRDYAKNTVYLHMNRLKPEDNAVYFCNDSVINEMNNWGQGTQVTVSS	low polyreactivity
QVQLVESGGGLFQAGGILRLTCAASGLTIYDYAMRWSRQAPAKERELVAANTRSAGSTYYADSVKGRFTISRDYAKYTVYLLMNSLKPEDTAVYYCAARGKIRYQGYYGSDQYYYWGQGTQVSVSS	high polyreactivity
QVQLVESGGGLFQAGGRLRLSCAASGSTFGYNAMGWYREAPGKERELVAAISYSSGSTYYADSVKGRFTISRDNAKNTVYLQMNSLKPEDTAVYYCAVVSRASRRGGRYDYWGQGTQVTVSS	high polyreactivity
QVQLVESGGGLFQAGGSIRLSCAASGRISEGYAMGWYIQAPGKERELVAAITSSTASTYYADSVKGRFTISRDNAKNTVYLQMNSLKPEDTAVYYCNADYGLYPEDYDYWGQGTQVTVSS	low polyreactivity
QVQLVESGGGLFQAGGSLRISCAASGSTFYHNFMGWYRQAPGKERELVARITSTDSTYYEDSVKGRFTISGDNAKNTVYLQMNSLKPEYTAVSYCAASWWSPYDYWGQATQVTVSS	low polyreactivity
QVQLVESGGGLFQAGGSLRISCAPSGFISHFYAMAWYRHAPGKEREFVARISYSVGSTYYADSVKGRFTISRDNAKNTVYVQMNSLKPEDTAVYDCNAGPQYDVHEYYYWGQGTQVTGSS	low polyreactivity
QVQLVESGGGLFQAGGSLRLRWAASGNTFRYYVMGWYRQAPGKERELVADINWSGGRTYYADSVKWGFTISRDNAKNTVYFQMNSLKPEDTAVFYCNAARKLYRYSYDYWGQGTQVTLSS	high polyreactivity
QVQLVESGGGLFQAGGSLRLSCAASGFIFFPYTMGWYRQAPGKERELVAAITNGGSTSYADSVKGRFTISRDNAKNTVYLQMNSLKPEDTAVYYCAADLGRNLLHTYYYWGQGTQVTVSS	low polyreactivity
QVQLVESGGGLFQAGGSLRLSCAASGFIFQYYDMGWYRQAPGKERELVAAINYSGGNTYYADSVKGRFTISRDNAKNTVYLQLNILKPEDSEVFYCAAAPSVSCTRLYEYWGQGTQVTVSS	high polyreactivity
QVQLVESGGGLFQAGGSLRLSCAASGFTFSFNTMGWYRQAPVKERELVAAIRNNGGGTNYADSVKGRFTISRDKAMNTVYLQMNSLKPEDTAVYYCAADRIYAWFGRLYYWGQGTQVTGSS	low polyreactivity
QVQLVESGGGLFQAGGSLRLSCAASGFTIFLNAMGWYRQAPGKERELVAAITVSGSSTYYADSVKGRFTISRDNAKNTVYLQMNSLKPEDTAVYYCNAEIYSPYYTYDYWGQGTQVTVSS	low polyreactivity

Sequence	polyreactivity (PSR sort gate)
QVQLVESGGGLFQAGGSLRLSCAASGIIFPYYVMGWSRQAPGTEREFVATISWSGGRTYYADSVKGRFTISRDNAKNTVYFQMNSLKPEDTAVYYCAAAKHYYNGYGYWGQGTQVTVSS	high polyreactivity
QVQLVESGGGLFQAGGSLRLSCAASGITLYLYVMGWYRQAPGIEREFVAAIRWSGGSTYYADSVKGRFTISRDNAKYTVYLLMNSLKPEDTAVYYCAVTYVGHVYEYYYWGQGTQVTVSS	low polyreactivity
QVQLVESGGGLFQAGGSLRLSCAASGLIFSSNAMGWYRQAPGKERELVATISWSGGSTYYADSVKGRFTISRDKAKNNVYLQMNSQKPEDTAVYYCAAAQRWSFLHYYYYWGQGTQVTVSS	high polyreactivity
QVQLVESGGGLFQAGGSLRLSCAASGLTFYIYAMGWYRQAPGKEREFVAAIRRSGGRTYYADSVKGRFTISRDNAKNTVYLQMNSLKPEDTAVYYCNRYTQYRDRSDNHWGQGTQVTVSS	high polyreactivity
QVQLVESGGGLFQAGGSLRLSCAASGNTFPYYAMGWYRQAPVKERELVAAISRSGGTTYYADSVKGRFTISRDNAKNTVYLQMTSLKPEDTAVYYCAALYGSRSTYHMDDYWGQGSQVTVSS	high polyreactivity
QVQLVESGGGLFQAGGSLRLSCAASGRIFHWYAMGWYRQAPGKERELHAAITDGDSTYYADSVKGRFTISRDNAKNTVYLQMNSLKPEDTAVYYCAADVVYSPYVFGGTRYYKYDYWGQVTQVTVSS	low polyreactivity
QVQLVESGGGLFQAGGSLRLSCAASGRIFSDYAMGWYRQAPGKERELVATITSGDSTNYADSVKGRFTISRDNAKNTVYLQMNSLKPEDTAVYYCNADRFADYDYWGQGTQVTVSS	low polyreactivity
QVQLVESGGGLFQAGGSLRLSCAASGRTFDDYAMGWYRQAPGKERELVAGITDNGGGTNYADSVKGRFTISRDNAKNTVYLQMNSLKQEDTAVYYCAAGETFEMYYWGQVTQVTVSS	low polyreactivity
QVQLVESGGGLFQAGGSLRLSCAASGRTFGIYAMRWYRQAPGKERELVATISWRGGSTYYADSVKGRFTISRDNAKNTVDLQMNSLKPEDTAVYYCAAVLTALSPDFEYEYWGQGTQVTVSS	low polyreactivity
QVQLVESGGGLFQAGGSLRLSCAASGRTFHANAMGWYRQAPGKERELVARINWSGTSTYYADSVKGRFTISRDNAKNTVYLQMNSLKPEDTAVYYCAAGWIRQYSSLYDYWGQGTQVTVSS	high polyreactivity
QVQLVESGGGLFQAGGSLRLSCAASGRTFLYYTMGWYRQAPGKERELVAAITSGTSTNYADSVKGRFTISRDNAKNTVYLQMNSLKPEDTAVYYCNKRAARSLNGYPLYGYYYWGQGTQVTVSS	low polyreactivity
QVQLVESGGGLFQAGGSLRLSCAASGRTFRYYVMGWYRQAPGKERELVAAISKSGASTYYADSVKGRFTISRDNAKYTVYSQMNSLKPEDTAVYYCAAGGVYSIYRTSRVGYDYWGQGTQVTVSS	high polyreactivity
QVQLVESGGGLFQAGGSLRLSCAASGRTFSRYVMGWYRQAPGKERELVAAISRTGGRKYYADSVKGRFTITRDNAKNTVYLQMNSLKPEDTAVYYCNAGTVLISTYDYWGQGTQVTVSS	high polyreactivity
QVQLVESGGGLFQAGGSLRLSCAASGRTIYLNAMGWYRQAPLKERELVAAITSSGGRTYYADSVKGRFTISRDNAKNSVYLQMNSLKPEDTAVYYCAAVVSSKPSFYWGQGSQVTVSS	low polyreactivity
QVQLVESGGGLFQAGGSLRLSCAASGSIFDSYAMGWYRQAPGKDREVVAAISSDCGSTYYADSVKGRFTISRDNAKNTVYLQMNSLKPEDTAVYFCAVEDYSSPYDFDSWGQGTQVTVSS	low polyreactivity
QVQLVESGGGLFQAGGSLRLSCAASGSIFRYYVMGWYRQAPGKEMELVAAISTGDRTNYADSVKGRFTISRDNAKNTVYLQMNSLKPEDTAVYYCNADYVVGWARLEFNYWGQGTQVTVSS	low polyreactivity
